Patent US11833164B2, “Methods of treating Fabry disease in patients having a mutation in the GLA gene” (Amicus Therapeutics, Inc., priority 2019, dated 2023)
Positions count from the first letter of the chain named. Names and notes keep the numbering of the source.

B1: A368P (protein)
chain: MQLRNPELHLGCALALRFLALVSWDIPGARALDNGLARTPTMGWLHWERFMCNLDCQEEPDSCISEKLFMEMAELMVSEGWKDAGYEYLCIDDCWMAPQRDSEGRLQADPQRFPHGIRQLANYVHSKGLKLGIYADVGNKTCAGFPGSFGYYDIDAQTFADWGVDLLKFDGCYCDSLENLADGYKHMSLALNRTGRSIVYSCEWPLYMWPFQKPNYTEIRQYCNHWRNFADIDDSWKSIKSILDWTSFNQERIVDVAGPGGWNDPDMLVIGNFGLSWNQQVTQMALWAIMAAPLFMSNDLRHISPQAKALLQDKDVIAINQDPLGKQGYQLRQGDNFEVWERPLSGLAWAVAMINRQEIGGPRSYTIPVASLGKGVACNPACFITQLLPVKRKLGFYEWTSRLRSHINPTGTVLLQLENTMQMSLKDLL
B2: G373C (protein)
chain: B1 chain with P368A, G373C
B3: K374I (protein)
chain: B1 chain with P368A, K374I
B4: A370V (protein)
chain: B1 chain with P368A, A370V
B5: V376E (protein)
chain: B1 chain with P368A, V376E
B6: K374T (protein)
chain: B1 chain with P368A, K374T
B7: V369F (protein)
chain: B1 chain with P368A, V369F
B8: G375R (protein)
chain: B1 chain with P368A, G375R
B9: K374R (protein)
chain: B1 chain with P368A, K374R
B10: V369G (protein)
chain: B1 chain with P368A, V369G
B11: A370T (protein)
chain: B1 chain with P368A, A370T
B12: A370G (protein)
chain: B1 chain with P368A, A370G
B13: K374E (protein)
chain: B1 chain with P368A, K374E
B14: S371C (protein)
chain: B1 chain with P368A, S371C
B15: V369L (protein)
chain: B1 chain with P368A, V369L
B16: A370D (protein)
chain: B1 chain with P368A, A370D
B17: V369I (protein)
chain: B1 chain with P368A, V369I
B18: S371T (protein)
chain: B1 chain with P368A, S371T
B19: A370P (protein)
chain: B1 chain with P368A, A370P
B20: G373A (protein)
chain: B1 chain with P368A, G373A
B21: V369A (protein)
chain: B1 chain with P368A, V369A

tested on: mutant form of α-Gal A expressed in HEK-293 cells; assay: HEK assay (GLP HEK / Migalastat Amenability Assay): α-Gal A activity in lysates of transiently transfected HEK-293 cells incubated with or without 10 μM migalastat; assay type: cell-based, human; conditions: 10 μM migalastat versus baseline
How it was run: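 HEK-293 cells transiently transfected with mutant α-Gal A and incubated with or without 10 μM migalastat; lysate activity given as nmol free 4-MU released per mg protein per hour. Values are mean±SEM.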

Molecule | Absolute increase (% WT) | Relative increase
B1 | 25.7 % WT | 1.3
B2 | 8.7 % WT | 3.2
B3 | 21.9 % WT | 2.0
B4 | 20.6 % WT | 1.5
B5 | 21.9 % WT | 1.4
B6 | 30.2 % WT | 1.6
B7 | 19.6 % WT | 1.5
B8 | 18.7 % WT | 1.4
B9 | 17.9 % WT | 1.2
B10 | 5.5 % WT | 3.3
B11 | 17.6 % WT | 1.2
B12 | 22.9 % WT | 1.3
B13 | 14.1 % WT | 1.3
B14 | 11.1 % WT | 1.4
B15 | 30.3 % WT | 1.4
B16 | 22.4 % WT | 1.2
B17 | 19.6 % WT | 1.2
B18 | 26.1 % WT | 1.3
B19 | 16.9 % WT | 1.5
B20 | 12.4 % WT | 1.3
B21 | 38.6 % WT | 1.5

same assay, conditions: absence of migalastat; percentage of baseline wild-type α-Gal A activity; mean ± SEM

Molecule | Baseline α-Gal A activity (% WT)
B1 | 91.7 ± 4.6 % WT
B2 | 4.3 ± 0.2 % WT
B3 | 22.3 ± 1.3 % WT
B4 | 40.1 ± 3.1 % WT
B5 | 74 ± 4.6 % WT
B6 | 46.1 ± 2.8 % WT
B7 | 37.7 ± 2.8 % WT
B8 | 41.7 ± 1.9 % WT
B9 | 74.3 ± 4.8 % WT
B10 | 2.6 ± 0.2 % WT
B11 | 79.9 ± 4.3 % WT
B12 | 78.1 ± 4.4 % WT
B13 | 49.9 ± 3.6 % WT
B14 | 23.5 ± 1.3 % WT
B15 | 74.2 ± 3.7 % WT
B16 | 87.5 ± 6.1 % WT
B17 | 79.7 ± 6.8 % WT
B18 | 65 ± 3.3 % WT
B19 | 33.9 ± 2.8 % WT
B20 | 40.8 ± 1.5 % WT
B21 | 77.6 ± 5 % WT

same assay, conditions: lysates of HEK-293 cells transiently transfected with the mutant form, incubated 5 days in absence of migalastat; mean ± SEM

Molecule | Baseline α-Gal A activity
B1 | 26402 ± 926 nmol/mg/h
B2 | 1744 ± 92 nmol/mg/h
B3 | 8194 ± 506 nmol/mg/h
B4 | 15754 ± 1222 nmol/mg/h
B5 | 22992 ± 924 nmol/mg/h
B6 | 16418 ± 1050 nmol/mg/h
B7 | 11912 ± 1197 nmol/mg/h
B8 | 15302 ± 1157 nmol/mg/h
B9 | 27984 ± 2321 nmol/mg/h
B10 | 803 ± 59 nmol/mg/h
B11 | 25024 ± 1951 nmol/mg/h
B12 | 24835 ± 2637 nmol/mg/h
B13 | 19699 ± 1718 nmol/mg/h
B14 | 10189 ± 1078 nmol/mg/h
B15 | 27680 ± 1912 nmol/mg/h
B16 | 27098 ± 2504 nmol/mg/h
B17 | 30094 ± 3211 nmol/mg/h
B18 | 27962 ± 2785 nmol/mg/h
B19 | 10431 ± 975 nmol/mg/h
B20 | 14426 ± 630 nmol/mg/h
B21 | 23968 ± 1797 nmol/mg/h

same assay, conditions: lysates of HEK-293 cells transiently transfected with the mutant form, incubated 5 days with 10 μM migalastat; mean ± SEM

Molecule | 10 μM migalastat α-Gal A activity
B1 | 33525 ± 1803 nmol/mg/h
B2 | 5543 ± 547 nmol/mg/h
B3 | 16076 ± 936 nmol/mg/h
B4 | 24151 ± 1591 nmol/mg/h
B5 | 30929 ± 1635 nmol/mg/h
B6 | 26614 ± 1659 nmol/mg/h
B7 | 18282 ± 1960 nmol/mg/h
B8 | 22033 ± 1442 nmol/mg/h
B9 | 34403 ± 2426 nmol/mg/h
B10 | 2628 ± 291 nmol/mg/h
B11 | 30276 ± 2364 nmol/mg/h
B12 | 31805 ± 3001 nmol/mg/h
B13 | 24879 ± 2423 nmol/mg/h
B14 | 14546 ± 1141 nmol/mg/h
B15 | 38458 ± 2367 nmol/mg/h
B16 | 33279 ± 2473 nmol/mg/h
B17 | 36630 ± 2373 nmol/mg/h
B18 | 37065 ± 2351 nmol/mg/h
B19 | 15618 ± 1776 nmol/mg/h
B20 | 18622 ± 1289 nmol/mg/h
B21 | 35925 ± 2462 nmol/mg/h

same assay, conditions: with 10 μM migalastat, 5 days; percentage of baseline wild-type α-Gal A activity; mean ± SEM

Molecule | 10 μM migalastat α-Gal A activity (% WT)
B1 | 117.4 ± 8.7 % WT
B2 | 13 ± 0.9 % WT
B3 | 44.2 ± 2.9 % WT
B4 | 60.7 ± 3.5 % WT
B5 | 95.9 ± 3.8 % WT
B6 | 76.2 ± 5.7 % WT
B7 | 57.3 ± 4.8 % WT
B8 | 60.4 ± 2.1 % WT
B9 | 92.2 ± 4.9 % WT
B10 | 8.1 ± 0.7 % WT
B11 | 97.5 ± 6.1 % WT
B12 | 101 ± 5.4 % WT
B13 | 64 ± 5.7 % WT
B14 | 34.7 ± 1.6 % WT
B15 | 104.5 ± 5.6 % WT
B16 | 109.8 ± 6.8 % WT
B17 | 99.3 ± 5.5 % WT
B18 | 91.1 ± 5 % WT
B19 | 50.7 ± 5.4 % WT
B20 | 53.2 ± 3.7 % WT
B21 | 116.2 ± 6.3 % WT
